What was measured:
[1] = target: Large tumor suppressor 1 (LATS1), endogenous (UniProt O95835); assay: streptavidin affinity purification and MS (MS1 intensity); settings: three independent biological replicates; parent: est. -0.1; read off a plot
[2] = target: nonreceptor tyrosine phosphatase 14 (PTPN14), endogenous (UniProt Q15678); assay: as above; settings: three independent biological replicates; parent: est. -0.1; read off a plot
AMOTL1 = AMOTL1 (UniProt Q8IY63); assay: AP-MS (MS1 intensity); settings: parent: est. 34; read off a plot
CCDC85C = CCDC85C (UniProt A6NKD9); assay: AP-MS (MS1 intensity); settings: parent: est. 32; read off a plot
TP53BP2 = TP53BP2 (UniProt Q13625); assay: AP-MS (MS1 intensity); settings: parent: est. 33; read off a plot
[3] = target: Large tumor suppressor 1 (LATS1), endogenous (UniProt O95835); assay: Strep AP-MS; settings: three biological replicates; parent: est. 0.0; read off a plot
[4] = target: nonreceptor tyrosine phosphatase 14 (PTPN14), endogenous (UniProt Q15678); assay: Strep AP-MS; settings: three biological replicates; parent: est. 0.0; read off a plot

UniProt O95835, sequence (O95835 whole entry): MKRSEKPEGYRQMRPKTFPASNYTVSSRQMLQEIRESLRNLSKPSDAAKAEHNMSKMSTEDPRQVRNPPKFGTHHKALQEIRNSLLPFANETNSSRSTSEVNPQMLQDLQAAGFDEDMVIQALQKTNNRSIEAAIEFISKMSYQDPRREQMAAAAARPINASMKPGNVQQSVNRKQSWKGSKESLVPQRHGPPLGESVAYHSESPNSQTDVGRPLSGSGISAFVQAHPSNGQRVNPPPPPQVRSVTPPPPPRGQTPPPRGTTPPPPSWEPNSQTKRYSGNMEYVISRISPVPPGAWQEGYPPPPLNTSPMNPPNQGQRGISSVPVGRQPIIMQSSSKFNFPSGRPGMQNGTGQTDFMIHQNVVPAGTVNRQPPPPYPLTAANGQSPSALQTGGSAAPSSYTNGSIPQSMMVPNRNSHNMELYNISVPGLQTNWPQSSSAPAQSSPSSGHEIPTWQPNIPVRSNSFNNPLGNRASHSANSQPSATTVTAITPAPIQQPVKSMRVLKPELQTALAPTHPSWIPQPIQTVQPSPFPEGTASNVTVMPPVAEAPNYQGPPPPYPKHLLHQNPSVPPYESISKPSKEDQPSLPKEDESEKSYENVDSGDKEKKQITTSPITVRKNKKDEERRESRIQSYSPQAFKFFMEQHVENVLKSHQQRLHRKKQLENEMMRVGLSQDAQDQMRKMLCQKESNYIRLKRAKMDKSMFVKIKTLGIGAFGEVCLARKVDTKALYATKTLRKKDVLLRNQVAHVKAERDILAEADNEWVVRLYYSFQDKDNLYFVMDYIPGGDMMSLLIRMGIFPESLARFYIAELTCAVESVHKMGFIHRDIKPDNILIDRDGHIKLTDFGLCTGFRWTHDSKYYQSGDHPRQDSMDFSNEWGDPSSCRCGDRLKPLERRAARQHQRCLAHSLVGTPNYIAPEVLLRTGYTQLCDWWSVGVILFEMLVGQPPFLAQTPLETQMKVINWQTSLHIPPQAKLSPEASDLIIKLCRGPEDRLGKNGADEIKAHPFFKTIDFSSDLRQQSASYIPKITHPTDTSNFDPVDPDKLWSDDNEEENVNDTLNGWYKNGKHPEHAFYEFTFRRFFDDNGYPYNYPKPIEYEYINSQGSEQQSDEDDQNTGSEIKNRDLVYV
UniProt Q15678, sequence (Q15678 whole entry): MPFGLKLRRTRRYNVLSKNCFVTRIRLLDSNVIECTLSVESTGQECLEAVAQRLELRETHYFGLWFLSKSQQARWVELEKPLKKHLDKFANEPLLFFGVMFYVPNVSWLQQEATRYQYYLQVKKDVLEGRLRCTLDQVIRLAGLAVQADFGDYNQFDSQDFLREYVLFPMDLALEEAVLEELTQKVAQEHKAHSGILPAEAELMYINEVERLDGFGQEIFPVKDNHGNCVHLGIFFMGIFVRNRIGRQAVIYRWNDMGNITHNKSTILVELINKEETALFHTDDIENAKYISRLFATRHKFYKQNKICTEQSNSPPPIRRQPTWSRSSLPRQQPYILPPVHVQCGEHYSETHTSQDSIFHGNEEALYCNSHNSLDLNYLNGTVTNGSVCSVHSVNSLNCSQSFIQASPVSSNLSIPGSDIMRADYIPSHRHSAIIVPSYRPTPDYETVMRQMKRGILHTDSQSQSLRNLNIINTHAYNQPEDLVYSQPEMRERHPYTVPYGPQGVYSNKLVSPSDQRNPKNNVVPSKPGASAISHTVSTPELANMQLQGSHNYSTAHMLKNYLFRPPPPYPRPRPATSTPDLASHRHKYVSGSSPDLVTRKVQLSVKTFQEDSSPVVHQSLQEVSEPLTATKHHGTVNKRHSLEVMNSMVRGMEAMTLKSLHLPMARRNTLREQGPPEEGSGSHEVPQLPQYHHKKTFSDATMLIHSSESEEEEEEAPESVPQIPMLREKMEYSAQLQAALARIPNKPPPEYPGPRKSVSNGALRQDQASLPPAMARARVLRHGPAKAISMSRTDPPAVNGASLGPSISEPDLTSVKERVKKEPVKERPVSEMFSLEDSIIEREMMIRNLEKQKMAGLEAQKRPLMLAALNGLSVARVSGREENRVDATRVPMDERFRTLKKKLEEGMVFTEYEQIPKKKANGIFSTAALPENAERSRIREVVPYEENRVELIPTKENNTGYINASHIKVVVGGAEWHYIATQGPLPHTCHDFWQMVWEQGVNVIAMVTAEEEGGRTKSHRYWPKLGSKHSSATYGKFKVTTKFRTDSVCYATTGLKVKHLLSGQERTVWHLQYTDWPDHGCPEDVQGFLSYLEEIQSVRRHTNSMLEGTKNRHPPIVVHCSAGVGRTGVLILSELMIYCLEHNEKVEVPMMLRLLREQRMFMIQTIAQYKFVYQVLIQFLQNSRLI
UniProt A6NKD9, sequence (A6NKD9 whole entry): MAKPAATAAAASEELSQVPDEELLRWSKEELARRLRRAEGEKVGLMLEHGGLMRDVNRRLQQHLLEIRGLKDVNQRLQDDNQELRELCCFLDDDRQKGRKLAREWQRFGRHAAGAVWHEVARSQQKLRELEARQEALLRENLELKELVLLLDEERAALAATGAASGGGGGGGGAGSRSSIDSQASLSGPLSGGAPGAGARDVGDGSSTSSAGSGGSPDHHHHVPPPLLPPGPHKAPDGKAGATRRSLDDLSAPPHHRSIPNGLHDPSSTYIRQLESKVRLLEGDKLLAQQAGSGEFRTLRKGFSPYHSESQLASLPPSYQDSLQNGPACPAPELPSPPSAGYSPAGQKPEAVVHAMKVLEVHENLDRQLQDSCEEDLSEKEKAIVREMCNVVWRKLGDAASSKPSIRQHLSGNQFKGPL
UniProt Q8IY63, sequence (Q8IY63 whole entry): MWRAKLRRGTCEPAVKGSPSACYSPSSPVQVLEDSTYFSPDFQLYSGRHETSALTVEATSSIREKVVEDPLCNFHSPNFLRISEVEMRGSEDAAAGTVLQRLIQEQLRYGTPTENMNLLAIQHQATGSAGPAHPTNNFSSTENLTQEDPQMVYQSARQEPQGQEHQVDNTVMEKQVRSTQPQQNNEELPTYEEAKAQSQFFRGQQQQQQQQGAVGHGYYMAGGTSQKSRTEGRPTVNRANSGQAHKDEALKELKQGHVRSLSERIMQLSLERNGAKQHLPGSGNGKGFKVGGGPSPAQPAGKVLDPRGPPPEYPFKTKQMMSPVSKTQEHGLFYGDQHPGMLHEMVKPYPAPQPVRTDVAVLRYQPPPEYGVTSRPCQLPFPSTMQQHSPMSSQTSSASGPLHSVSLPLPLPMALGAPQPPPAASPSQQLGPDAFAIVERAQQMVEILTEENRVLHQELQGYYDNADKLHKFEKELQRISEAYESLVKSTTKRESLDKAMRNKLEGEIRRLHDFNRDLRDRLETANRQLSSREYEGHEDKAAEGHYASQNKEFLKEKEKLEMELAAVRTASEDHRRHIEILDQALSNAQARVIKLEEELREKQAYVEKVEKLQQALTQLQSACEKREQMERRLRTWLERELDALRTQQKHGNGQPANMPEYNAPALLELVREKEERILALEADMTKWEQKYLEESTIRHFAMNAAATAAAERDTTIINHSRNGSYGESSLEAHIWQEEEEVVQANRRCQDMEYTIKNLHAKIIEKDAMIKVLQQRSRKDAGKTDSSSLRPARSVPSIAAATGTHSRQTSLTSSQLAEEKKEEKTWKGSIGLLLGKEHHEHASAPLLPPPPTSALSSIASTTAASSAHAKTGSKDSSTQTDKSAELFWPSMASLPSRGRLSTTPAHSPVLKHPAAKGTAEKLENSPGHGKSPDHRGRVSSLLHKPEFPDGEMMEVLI
UniProt Q13625, sequence (Q13625 whole entry): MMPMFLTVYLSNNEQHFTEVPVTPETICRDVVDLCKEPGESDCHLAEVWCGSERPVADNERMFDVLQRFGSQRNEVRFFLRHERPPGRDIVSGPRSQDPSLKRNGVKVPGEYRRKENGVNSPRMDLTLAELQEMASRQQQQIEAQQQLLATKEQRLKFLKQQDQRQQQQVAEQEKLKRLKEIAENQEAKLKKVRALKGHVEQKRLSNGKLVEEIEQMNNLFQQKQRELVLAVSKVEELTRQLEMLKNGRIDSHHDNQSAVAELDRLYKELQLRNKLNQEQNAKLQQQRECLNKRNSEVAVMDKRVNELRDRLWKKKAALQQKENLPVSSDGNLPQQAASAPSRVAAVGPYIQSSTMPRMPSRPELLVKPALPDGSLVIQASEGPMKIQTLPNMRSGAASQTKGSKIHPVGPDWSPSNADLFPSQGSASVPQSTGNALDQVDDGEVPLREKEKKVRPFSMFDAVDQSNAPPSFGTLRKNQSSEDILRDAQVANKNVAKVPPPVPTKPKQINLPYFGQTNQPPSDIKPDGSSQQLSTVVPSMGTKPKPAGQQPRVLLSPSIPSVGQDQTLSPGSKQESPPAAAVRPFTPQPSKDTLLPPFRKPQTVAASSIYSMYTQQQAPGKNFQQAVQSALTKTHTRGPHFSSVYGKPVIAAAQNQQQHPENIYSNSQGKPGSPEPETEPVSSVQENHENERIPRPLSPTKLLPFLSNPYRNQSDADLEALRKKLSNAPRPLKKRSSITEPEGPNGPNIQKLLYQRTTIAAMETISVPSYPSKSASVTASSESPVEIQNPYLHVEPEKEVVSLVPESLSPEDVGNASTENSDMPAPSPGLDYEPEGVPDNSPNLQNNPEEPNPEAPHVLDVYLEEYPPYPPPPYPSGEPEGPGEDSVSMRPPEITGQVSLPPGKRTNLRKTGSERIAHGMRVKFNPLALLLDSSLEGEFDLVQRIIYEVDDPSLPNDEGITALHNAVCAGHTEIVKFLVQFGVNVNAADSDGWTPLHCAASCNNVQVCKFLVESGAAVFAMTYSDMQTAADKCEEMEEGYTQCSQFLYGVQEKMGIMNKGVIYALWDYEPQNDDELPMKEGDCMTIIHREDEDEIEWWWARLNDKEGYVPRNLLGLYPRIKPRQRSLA

Row | Substance | other: log2(mutant vs WT) [1] | other: log2(mutant vs WT) [2] | response (log2(Intensity)) (AMOTL1) | response (log2(Intensity)) (CCDC85C) | response (log2(Intensity)) (TP53BP2) | other: log2(mutant vs WT) [3] | other: log2(mutant vs WT) [4]
1 | Strep‐HA YAP1 (wild type) 5SA | -0.6 | 0 | – | – | – | – | –
2 | Strep‐HA YAP1 (wild type) S367A | – | – | 34 | 28 | 30 | – | –
3 | Strep‐HA YAP1 (wild type) ΔWW1 | -7.2 | -3.4 | – | – | – | -7.2 | -3.4
4 | Strep‐HA YAP1 (wild type) ΔWW1/2 | -7 | -9.2 | – | – | – | -7 | -9.2
5 | Strep‐HA YAP1 (wild type) ΔWW2 | -3.6 | -7.7 | – | – | – | -3.6 | -7.7

Source: paper PMC10090947
